T1: NFKB2 (p52) homodimer (UniProt Q00653 Q00653:1-454)
T1 sequence: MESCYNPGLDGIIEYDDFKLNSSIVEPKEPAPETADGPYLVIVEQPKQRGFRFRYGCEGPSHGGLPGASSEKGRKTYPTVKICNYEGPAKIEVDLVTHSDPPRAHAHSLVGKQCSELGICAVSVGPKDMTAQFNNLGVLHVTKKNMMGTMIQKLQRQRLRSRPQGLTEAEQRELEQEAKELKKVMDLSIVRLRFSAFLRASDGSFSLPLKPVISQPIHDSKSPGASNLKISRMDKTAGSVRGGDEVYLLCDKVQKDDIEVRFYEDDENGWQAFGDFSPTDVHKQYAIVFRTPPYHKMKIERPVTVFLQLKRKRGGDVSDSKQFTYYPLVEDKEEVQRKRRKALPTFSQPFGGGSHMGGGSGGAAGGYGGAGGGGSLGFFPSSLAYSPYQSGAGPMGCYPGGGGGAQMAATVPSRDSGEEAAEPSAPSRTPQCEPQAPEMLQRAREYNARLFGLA

B1: P-selectin 4632-4672 (dsDNA)
DNA 1: CATCTTCCATGGAAGGGGGTGACCCCTTGCCTCTTGGCAAC
DNA 2: GTTGCCAAGAGGCAAGGGGTCACCCCCTTCCATGGAAGATG
B2: P-selectin 4642-4664 (dsDNA)
DNA 1: GGAAGGGGGTGACCCCTTGCCTC
DNA 2: GAGGCAAGGGGTCACCCCCTTCC
B3: P-selectin 4642-4664 ATAG mutant (dsDNA)
DNA 1: GGAAGGGGGTGAATAGTTGCCTC
DNA 2: GAGGCAACTATTCACCCCCTTCC
modifications: [none]

What was measured:
NFKB2 (p52) homodimer [1] = molecular target: T1, NFKB2 (p52) homodimer; assay: EMSA; labeled oligonucleotides bound; conditions: chain copies: 2 (stated); label: 32P
NFKB1 (p50) homodimer [2] = molecular target: T2, NFKB1 (p50) homodimer (UniProt P19838 P19838:1-433); assay: EMSA; labeled oligonucleotides bound; conditions: chain copies: 2 (stated); label: 32P
Rel A homodimer = Rel A homodimer (UniProt Q04206 Q04206:1-551); assay: EMSA; conditions: chain copies: 2 (stated); label: 32P
NFKB2 (p52) homodimer [3] = molecular target: T1, NFKB2 (p52) homodimer; assay: EMSA; methylation interference shows contacts to GGGG on both strands; conditions: chain copies: 2 (stated); label: 32P
NFKB1 (p50) homodimer [4] = molecular target: T2, NFKB1 (p50) homodimer; assay: as above; conditions: chain copies: 2 (stated); label: 32P
NFKB2 (p52) homodimer [5] = molecular target: T1, NFKB2 (p52) homodimer; assay: EMSA; conditions: chain copies: 2 (stated)
NFKB1 (p50) homodimer [6] = molecular target: T2, NFKB1 (p50) homodimer; assay: EMSA; conditions: chain copies: 2 (stated)

T2 sequence (P19838 1-433, one chain of several): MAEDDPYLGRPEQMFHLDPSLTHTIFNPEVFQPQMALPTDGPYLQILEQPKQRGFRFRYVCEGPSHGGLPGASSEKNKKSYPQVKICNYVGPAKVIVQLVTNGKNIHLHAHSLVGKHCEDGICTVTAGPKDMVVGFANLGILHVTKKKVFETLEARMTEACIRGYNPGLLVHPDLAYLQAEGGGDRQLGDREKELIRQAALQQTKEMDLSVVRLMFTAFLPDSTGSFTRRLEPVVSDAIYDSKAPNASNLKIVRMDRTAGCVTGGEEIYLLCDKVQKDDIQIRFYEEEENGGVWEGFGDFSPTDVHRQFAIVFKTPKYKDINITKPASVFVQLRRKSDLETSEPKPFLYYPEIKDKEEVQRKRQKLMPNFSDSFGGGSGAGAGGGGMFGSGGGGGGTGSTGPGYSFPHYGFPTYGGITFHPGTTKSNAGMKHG
Sequence of Rel A homodimer (Q04206 whole entry, one chain of several): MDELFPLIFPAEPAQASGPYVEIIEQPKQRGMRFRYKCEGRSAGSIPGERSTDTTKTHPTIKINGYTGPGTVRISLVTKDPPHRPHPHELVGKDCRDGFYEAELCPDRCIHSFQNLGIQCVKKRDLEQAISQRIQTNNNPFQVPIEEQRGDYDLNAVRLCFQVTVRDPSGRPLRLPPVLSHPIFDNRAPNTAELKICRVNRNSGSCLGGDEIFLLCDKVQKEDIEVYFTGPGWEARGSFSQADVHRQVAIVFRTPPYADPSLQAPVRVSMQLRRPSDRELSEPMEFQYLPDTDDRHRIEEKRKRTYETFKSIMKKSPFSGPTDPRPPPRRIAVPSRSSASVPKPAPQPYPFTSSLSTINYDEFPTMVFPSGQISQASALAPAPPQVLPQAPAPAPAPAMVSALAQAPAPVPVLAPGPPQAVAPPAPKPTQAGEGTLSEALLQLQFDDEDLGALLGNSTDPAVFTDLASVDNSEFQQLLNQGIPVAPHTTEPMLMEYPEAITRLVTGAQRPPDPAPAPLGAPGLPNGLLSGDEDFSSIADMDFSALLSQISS

Binder | binding result (NFKB2 (p52) homodimer [1]) | binding result (NFKB1 (p50) homodimer [2]) | binding result (Rel A homodimer) | binding result (NFKB2 (p52) homodimer [3]) | binding result (NFKB1 (p50) homodimer [4]) | binding result (NFKB2 (p52) homodimer [5]) | binding result (NFKB1 (p50) homodimer [6])
B1 | binds | binds | no binding |  |  |  | 
B2 |  |  | no binding | binds | binds |  | 
B3 |  |  |  |  |  | no binding | no binding

— US5605821, “Expression control sequences of the P-selectin gene” (Board of Regents of the University of Oklahoma)
